Paper PMC4568301 (The Biochemical journal, 2012)

Columns and labels:
[1] = target: AnxA2–HA (His6–AnxA2 fused to an HA tag, residues 1–339) (human, UniProt P07355 1-339); experiment: […]
[2] = target: T1, His6–Tir-EHEC (residues 1–558) (enterohaemorrhagic Escherichia coli …, UniProt Q7DB77 1-558); experiment: […]
T1 sequence: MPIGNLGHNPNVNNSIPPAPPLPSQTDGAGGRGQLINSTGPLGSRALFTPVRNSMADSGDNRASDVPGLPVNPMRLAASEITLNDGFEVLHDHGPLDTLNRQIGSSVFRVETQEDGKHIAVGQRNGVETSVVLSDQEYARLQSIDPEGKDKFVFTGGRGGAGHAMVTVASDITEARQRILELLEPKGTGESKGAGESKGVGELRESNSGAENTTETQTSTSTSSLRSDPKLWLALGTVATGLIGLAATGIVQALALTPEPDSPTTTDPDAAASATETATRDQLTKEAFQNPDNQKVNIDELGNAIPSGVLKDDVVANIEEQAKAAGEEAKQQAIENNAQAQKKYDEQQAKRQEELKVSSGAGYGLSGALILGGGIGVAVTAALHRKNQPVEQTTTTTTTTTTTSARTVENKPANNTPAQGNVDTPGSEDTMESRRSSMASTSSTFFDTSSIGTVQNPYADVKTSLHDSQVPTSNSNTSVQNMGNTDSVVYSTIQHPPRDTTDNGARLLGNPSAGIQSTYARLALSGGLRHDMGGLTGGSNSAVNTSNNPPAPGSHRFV

[3] = target: T2, Tir-EPEC (residues 1–550), His6-tagged (enteropathogenic Escherichia coli (EPEC), UniProt B7UM99 1-550); experiment: […]
T2 sequence: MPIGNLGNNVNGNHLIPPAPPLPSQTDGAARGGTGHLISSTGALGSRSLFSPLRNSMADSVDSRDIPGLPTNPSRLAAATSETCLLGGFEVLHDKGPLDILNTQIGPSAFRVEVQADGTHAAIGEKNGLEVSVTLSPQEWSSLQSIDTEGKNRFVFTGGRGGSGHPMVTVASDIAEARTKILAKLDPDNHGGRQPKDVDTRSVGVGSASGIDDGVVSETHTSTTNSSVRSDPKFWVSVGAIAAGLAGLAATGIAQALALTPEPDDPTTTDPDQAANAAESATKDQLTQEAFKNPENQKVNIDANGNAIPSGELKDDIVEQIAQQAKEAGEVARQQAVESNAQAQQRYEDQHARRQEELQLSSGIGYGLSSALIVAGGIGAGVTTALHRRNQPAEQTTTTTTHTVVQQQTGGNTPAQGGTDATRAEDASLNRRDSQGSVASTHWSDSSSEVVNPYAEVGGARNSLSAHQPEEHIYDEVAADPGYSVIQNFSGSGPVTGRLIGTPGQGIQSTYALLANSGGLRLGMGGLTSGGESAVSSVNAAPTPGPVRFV

[4] = target: T3, NHERF2–VC (Na+/H+ exchanger regulatory factor 2, HA-tagged, fused to the C-terminal fragment of Venus), Q15599; experiment: split reporter; details: remark: other sources report otherwise
T3 chain: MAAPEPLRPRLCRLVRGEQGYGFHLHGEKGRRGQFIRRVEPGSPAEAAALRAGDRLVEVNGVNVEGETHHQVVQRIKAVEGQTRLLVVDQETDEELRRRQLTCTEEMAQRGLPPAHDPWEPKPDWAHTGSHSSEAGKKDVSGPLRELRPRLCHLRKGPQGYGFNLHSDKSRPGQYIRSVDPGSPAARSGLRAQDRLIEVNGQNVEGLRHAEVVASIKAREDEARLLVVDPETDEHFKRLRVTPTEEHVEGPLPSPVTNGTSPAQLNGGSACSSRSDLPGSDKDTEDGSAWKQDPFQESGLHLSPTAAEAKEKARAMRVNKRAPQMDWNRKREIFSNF

Sequence of AnxA2–HA (His6–AnxA2 fused to an HA tag, residues 1–339) (P07355 whole entry, the tested form may be a part): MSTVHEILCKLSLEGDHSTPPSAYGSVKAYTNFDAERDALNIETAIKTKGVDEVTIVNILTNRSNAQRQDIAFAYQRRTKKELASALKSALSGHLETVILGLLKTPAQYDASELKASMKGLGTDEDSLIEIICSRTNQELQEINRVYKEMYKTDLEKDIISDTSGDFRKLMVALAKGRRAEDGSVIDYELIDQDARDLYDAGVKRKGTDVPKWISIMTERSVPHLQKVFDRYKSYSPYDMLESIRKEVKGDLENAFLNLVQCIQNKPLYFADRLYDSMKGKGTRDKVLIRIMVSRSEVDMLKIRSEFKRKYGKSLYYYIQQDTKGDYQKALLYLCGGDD

B1: TirC-EHEC (residues 366–558), His6-tagged (domain or fragment)
chain: SGALILGGGIGVAVTAALHRKNQPVEQTTTTTTTTTTTSARTVENKPANNTPAQGNVDTPGSEDTMESRRSSMASTSSTFFDTSSIGTVQNPYADVKTSLHDSQVPTSNSNTSVQNMGNTDSVVYSTIQHPPRDTTDNGARLLGNPSAGIQSTYARLALSGGLRHDMGGLTGGSNSAVNTSNNPPAPGSHRFV
B1: binds [1].

B2: AnxA2-C (C-terminal region of AnxA2, amino acids 191–339), His6-tagged (domain or fragment)
chain: IDQDARDLYDAGVKRKGTDVPKWISIMTERSVPHLQKVFDRYKSYSPYDMLESIRKEVKGDLENAFLNLVQCIQNKPLYFADRLYDSMKGKGTRDKVLIRIMVSRSEVDMLKIRSEFKRKYGKSLYYYIQQDTKGDYQKALLYLCGGDD
B2: binds [2]; binds [3].

B3: TirN-EPEC (residues 1–240), His6-tagged (domain or fragment)
chain: MPIGNLGNNVNGNHLIPPAPPLPSQTDGAARGGTGHLISSTGALGSRSLFSPLRNSMADSVDSRDIPGLPTNPSRLAAATSETCLLGGFEVLHDKGPLDILNTQIGPSAFRVEVQADGTHAAIGEKNGLEVSVTLSPQEWSSLQSIDTEGKNRFVFTGGRGGSGHPMVTVASDIAEARTKILAKLDPDNHGGRQPKDVDTRSVGVGSASGIDDGVVSETHTSTTNSSVRSDPKFWVSVGA
B3: binds [1].

B4: TirN-EHEC (residues 1–237), His6-tagged (domain or fragment)
chain: MPIGNLGHNPNVNNSIPPAPPLPSQTDGAGGRGQLINSTGPLGSRALFTPVRNSMADSGDNRASDVPGLPVNPMRLAASEITLNDGFEVLHDHGPLDTLNRQIGSSVFRVETQEDGKHIAVGQRNGVETSVVLSDQEYARLQSIDPEGKDKFVFTGGRGGAGHAMVTVASDITEARQRILELLEPKGTGESKGAGESKGVGELRESNSGAENTTETQTSTSTSSLRSDPKLWLALGT
B4: binds [1].

B5: TirC-EPEC (residues 369–550), His6-tagged (domain or fragment)
chain: SSALIVAGGIGAGVTTALHRRNQPAEQTTTTTTHTVVQQQTGGNTPAQGGTDATRAEDASLNRRDSQGSVASTHWSDSSSEVVNPYAEVGGARNSLSAHQPEEHIYDEVAADPGYSVIQNFSGSGPVTGRLIGTPGQGIQSTYALLANSGGLRLGMGGLTSGGESAVSSVNAAPTPGPVRFV
B5: binds [1].

B6: NHERF2–VC (Na+/H+ exchanger regulatory factor 2, HA-tagged, fused to the C-terminal fragment of Venus), Q15599 1-337 (natural protein)
chain: MAAPEPLRPRLCRLVRGEQGYGFHLHGEKGRRGQFIRRVEPGSPAEAAALRAGDRLVEVNGVNVEGETHHQVVQRIKAVEGQTRLLVVDQETDEELRRRQLTCTEEMAQRGLPPAHDPWEPKPDWAHTGSHSSEAGKKDVSGPLRELRPRLCHLRKGPQGYGFNLHSDKSRPGQYIRSVDPGSPAARSGLRAQDRLIEVNGQNVEGLRHAEVVASIKAREDEARLLVVDPETDEHFKRLRVTPTEEHVEGPLPSPVTNGTSPAQLNGGSACSSRSDLPGSDKDTEDGSAWKQDPFQESGLHLSPTAAEAKEKARAMRVNKRAPQMDWNRKREIFSNF
Work on B6 yielded a BiFC signal, percent of Venus fluorescence (% of Venus fluorescence) [4] of 75.
